Target: T1, GST-RhoB(17A), nucleotide free RhoB mutant (UniProt P62745 1-196, G17A)
T1 construct: RhoB, small GTPase of the Rho family, with the nucleotide-free mutation G17A; also called nucleotide-free mutant of RhoB; nucleotide-free Rho mutants (G17A)
Test: pull-down; 20 ug purified GST-RhoB(17A) on glutathione-sepharose beads, incubated with clarified MCF-7 lysates for 60 min at 4 C; cells mock-treated or irradiated with 5 Gy (also 400 uM 5-FU for 72 h); immunoblot for the GEFs
Conditions: one partner purified

T1 sequence (P62745 whole entry G17A): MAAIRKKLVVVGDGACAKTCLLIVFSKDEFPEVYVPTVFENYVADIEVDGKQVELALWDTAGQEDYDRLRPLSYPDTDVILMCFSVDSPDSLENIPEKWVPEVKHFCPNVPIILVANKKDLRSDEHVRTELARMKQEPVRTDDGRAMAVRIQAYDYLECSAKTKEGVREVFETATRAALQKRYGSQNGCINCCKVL

B1: neuroepithelial transforming gene 1 (Net1) (natural protein, human (endogenous in MCF-7 and HeLa), UniProt Q7Z628 1-596, looked up)
chain: MEPELAAQKQPRPRRRSRRASGLSTEGATGPSADTSGSELDGRCSLRRGSSFTFLTPGPNWDFTLKRKRREKDDDVVSLSSLDLKEPSNKRVRPLARVTSLANLISPVRNGAVRRFGQTIQSFTLRGDHRSPASAQKFSSRSTVPTPAKRRSSALWSEMLDITMKESLTTREIRRQEAIYEMSRGEQDLIEDLKLARKAYHDPMLKLSIMSEEELTHIFGDLDSYIPLHEDLLTRIGEATKPDGTVEQIGHILVSWLPRLNAYRGYCSNQLAAKALLDQKKQDPRVQDFLQRCLESPFSRKLDLWSFLDIPRSRLVKYPLLLKEILKHTPKEHPDVQLLEDAILIIQGVLSDINLKKGESECQYYIDKLEYLDEKQRDPRIEASKVLLCHGELRSKSGHKLYIFLFQDILVLTRPVTRNERHSYQVYRQPIPVQELVLEDLQDGDVRMGGSFRGAFSNSEKAKNIFRIRFHDPSPAQSHTLQANDVFHKQQWFNCIRAAIAPFQSAGSPPELQGLPELHEECEGNHPSARKLTAQRRASTVSSVTQVEVDENAYRCGSGMQMAEDSKSLKTHQTQPGIRRARDKALSGGKRKETLV
notes: Net1, nuclear guanine nucleotide exchange factor, endogenous in human cancer cell lines, detected by immunoblot; source: endogenous, MCF-7 lysate; endogenous, HeLa lysate
fold increase in binding after IR over mock-treated: ≥ 5 fold

B2: epithelial cell transforming sequence 2 (Ect2) (natural protein, human (endogenous in MCF-7 and HeLa), UniProt Q9H8V3 1-914, looked up)
chain: MAENSVLTSTTGRTSLADSSIFDSKVTEISKENLLIGSTSYVEEEMPQIETRVILVQEAGKQEELIKALKTIKIMEVPVIKIKESCPGKSDEKLIKSVINMDIKVGFVKMESVEEFEGLDSPEFENVFVVTDFQDSVFNDLYKADCRVIGPPVVLNCSQKGEPLPFSCRPLYCTSMMNLVLCFTGFRKKEELVRLVTLVHHMGGVIRKDFNSKVTHLVANCTQGEKFRVAVSLGTPIMKPEWIYKAWERRNEQDFYAAVDDFRNEFKVPPFQDCILSFLGFSDEEKTNMEEMTEMQGGKYLPLGDERCTHLVVEENIVKDLPFEPSKKLYVVKQEWFWGSIQMDARAGETMYLYEKANTPELKKSVSMLSLNTPNSNRKRRRLKETLAQLSRETDVSPFPPRKRPSAEHSLSIGSLLDISNTPESSINYGDTPKSCTKSSKSSTPVPSKQSARWQVAKELYQTESNYVNILATIIQLFQVPLEEEGQRGGPILAPEEIKTIFGSIPDIFDVHTKIKDDLEDLIVNWDESKSIGDIFLKYSKDLVKTYPPFVNFFEMSKETIIKCEKQKPRFHAFLKINQAKPECGRQSLVELLIRPVQRLPSVALLLNDLKKHTADENPDKSTLEKAIGSLKEVMTHINEDKRKTEAQKQIFDVVYEVDGCPANLLSSHRSLVQRVETISLGEHPCDRGEQVTLFLFNDCLEIARKRHKVIGTFRSPHGQTRPPASLKHIHLMPLSQIKKVLDIRETEDCHNAFALLVRPPTEQANVLLSFQMTSDELPKENWLKMLCRHVANTICKADAENLIYTADPESFEVNTKDMDSTLSRASRAIKKTSKKVTRAFSFSKTPKRALRRALMTSHGSVEGRSPSSNDKHVMSRLSSTSSLAGIPSPSLVSLPSFFERRSHTLSRSTTHLI
notes: Ect2, nuclear guanine nucleotide exchange factor, endogenous in human cancer cell lines, detected by immunoblot (sc-1005); source: endogenous, MCF-7 lysate; endogenous, HeLa lysate
fold increase in binding after IR over mock-treated: ≥ 5 fold

Source: article PMC3044157, “The Nuclear Guanine Nucleotide Exchange Factors Ect2 and Net1 Regulate RhoB-Mediated Cell Death after DNA Damage” (PLoS ONE, 2011)
